This note sets out measurements from article PMC11919473, “Synthesis and characterisation of DOTA‐kisspeptin‐10 as a potential gallium‐68/lutetium‐177 pan‐tumour radiopharmaceutical” (Journal of Neuroendocrinology, 2025).

One series addresses T1, KISS1R (Homo sapiens, UniProt Q969F8).
T1 construct: expressed in transfected cells; host or cells: HEK 293-T cells, transient transfection with XtremeGene HP
Description: Inositol phosphate (IP) accumulation assay in HEK 293‐T cells transiently transfected with KISS1R. It is filed as cell-based. The conditions noted are these: for EC50: HEK 293‐T cells expressing KISS1R. The protocol:
HEK 293‐T cell culturing and the IP accumulation assay were performed as described by Newton et al.[15], [16] The IP assay measures the response of the cells to ligands that is a measure of the binding affinity and stimulation of intracellular signalling. This assay was applied to determine whether the novel ligand retained the same or improved activity as KP10.
HEK 293‐T cells were cultured and maintained using DMEM (10% FBS) media supplemented with Glutamax at 37°C, 5% CO2 and 95% relative humidity. HEK 293‐T cells were passaged at 90% confluency using Trypsin. HEK 293‐T cells were plated out into 24‐well plates at a density of 1 × 10^5 cells/well. Each well was pre‐coated with Matrigel at a 1:30 dilution to ensure adhesion to the well. KISS1R gene construct was transiently transfected into the HEK 293‐T cells at a concentration of 10 ng/μL of KISS1R using XtremeGene HP (1:2 ratio) DNA transfection reagent. Cells were incubated overnight at 37°C at 5% CO2.
For the IP assay, the HEK 293‐T cells were incubated with myoinositol‐[2‐3H] […] The radiolabelled IPs were separated using a Dowex 100–200 mesh resin ion‐exchange chromatography, and the radioactivity (cpm) was measured using liquid scintillation (Packard Tricarb 2100 TR liquid scintillation analyser TRI‐CARB 4910TR 110 V Liquid Scintillation Counter, Perkin‐Elmer, USA). […] The results were analysed by doing sigmoidal regression to determine the EC 50 and then compared with their respective normalised ligand signalling assay.
The accumulation of the IPs measured for cells transfected with XtremeGene without KISS1R and treated with maximal stimulation of KP10 (1 × 10^−6 M) was subtracted from the measured accumulation of cells stimulated with DOTA‐KP10 over a dose range ([…]–1 × 10^−6 M) that were transfected with KISS1R in the same assay.
For the IP assay, the data were fitted using a nonlinear regression to determine Emax and EC50. Data collected from the ex vivo biodistribution were evaluated using the Kruskal–Wallis analysis. […]

The format of series [1] is in vitro ADME, human. How it is done:
The red blood cell (RBC) binding assay was performed by the method described by Shi and co‐workers.[22] In brief, radiolabelled [^68Ga]Ga‐DOTA‐KP10 (740 kBq in 10 μL) was mixed with 100 μL of human blood drawn up in the presence of heparin. The mixture was incubated in a shaking incubator at 37°C. Samples ([…]) were collected at two time points, 10 and 30 min. Plasma and blood cells were separated by centrifugation (2000 rpm, 5 min). The plasma was removed, and the blood cells were washed twice with 500 μL of normal saline (0.9% NaCl) that was then added to the plasma fraction. The amount (%) of labelled compound that was bound to the RBC was determined by the ratio of distribution between the plasma and blood cell fraction.[22]

A further series is described as follows: in vivo. Also noted: species or system Sprague–Dawley rats. The conditions noted are these: rat; for tissue uptake at 2.5 h: male, Sprague-Dawley, iv, 18.8 MBq, total radioactivity. The protocol: After the final image was acquired (150 min postinjection), the animals were euthanised and ex vivo biodistribution was performed. Euthanasia was performed by an overdose of isoflurane (without waking up post‐scan) followed by decapitation. A quantitative analysis of the radioactivity biodistribution and uptake in various organs of the rats was conducted. Following micro‐PET/CT imaging, the anesthetised animals were euthanised by decapitation and blood was collected into pre‐weighed BD SST vacutainer tubes (thermos Fisher Scientific, Johannesburg, South Africa). The blood samples were centrifuged (6000 rpm, 5 min) to separate the serum from the blood cells. The blood and serum along with the other dissected tissues and organs (heart, liver, spleen, intestines, testes, stomach, lungs and brain) were weighed, and the radioactivity was measured in the automated gamma counter (Hidex AMG, Turku, Finland). The radioactivity per organ was expressed as the percentage injected dose per gram of the organ (% ID/g). […] Data collected from the ex vivo biodistribution were evaluated using the Kruskal–Wallis analysis. A chi‐squared that was less than the H‐statistic was used to indicate significant differences between the concentrations within regions of interest. Organs were measured for activity and expressed as the percentage injected dose per gram of the organ (%ID/g). A multipoint regression model (exponential fit) was used to estimate blood‐half life.

The format of series [2] is in vitro ADME, human. How it is done:
Stability studies were performed in triplicate using [^68Ga]Ga‐DOTA‐KP10 spiked human serum, plasma or whole blood (samples were removed at 5, 60 and 120 min with incubation at 37°C). […] The samples taken (200 μL) at the selected time points were treated with ice‐cold acetonitrile (500 μL) and thereafter filtered with a 0.22‐μm filter to remove all residual proteins in the extract. This sample was then analysed by the HPLC method as described under Section 2.2.4.
The source holds these as a separate data set.

The next series can be described thus: physchem. It is filed as physicochemical. How it is done:
The method published by Jain and co‐workers was used.[21] Briefly, 100 μL (± 100 MBq) of the labelled [^68Ga]Ga‐DOTA‐KP10 was dispersed in a 1‐mL phosphate‐buffered saline (PBS) and octanol mixture (0.9:1). The samples were vortexed (1 min) and then centrifuged (5 min, 6000 rpm). A sample (200 μL) from each phase was taken, and the activity was measured in the Hidex AMG automated gamma counter (Turku, Finland). The partition coefficient (log P) was expressed as the logarithm of the ratio of counts from the n‐octanol fraction versus that of the aqueous fraction.[21], [22]

Series [3] is classed as in vitro ADME. The protocol: The protein binding assay was done as described by Mdlophane et al.[18] In brief, [^68Ga]Ga‐DOTA‐KP10 was incubated for 0, 60 and 120 min in serum at 37°C. Proteins were precipitated in ice‐cold acetonitrile (500 μL) and centrifuged (5000 rpm, 10 min). The supernatant was removed, and the protein pellet was washed with acetonitrile (250 μL). The washed protein pellets and supernatants were measured in an automated gamma‐counter (Hidex, Finland).

Details of series [4]: species or system Sprague–Dawley rats. The conditions noted are these: rat, in vivo, iv. An excerpt:
All procedures followed during the animal studies adhered to institutional and South African national guidelines for the care and use of laboratory animals (SANS10386:2021). Ethical approval for the study was obtained from the Research Animal Ethics Committee of North-West University (NWU-00560-19-S5) and the University of Pretoria (149/2019), South Africa. The animals were provided by the Department of Science and Technology/North-West University Preclinical Drug Development Platform (PCDDP) Vivarium. The study was conducted at the Preclinical Imaging Facility (PCIF) of the Nuclear Medicine Research Infrastructure (NuMeRI), South Africa. Five healthy Sprague-Dawley rats (male, 6-8 weeks, ±200 g) were enrolled into the study. All animals had ad libitum access to a conventional rodent diet and water. Animals were maintained on a 12-h artificial day/night cycle and supplied with corn cob bedding and nesting material for cage enrichment. […] Hybrid images were viewed and analysed using the InterviewFusionTM software (Mediso, Hungary). A qualitative visual analysis was done on all acquisitions, and blood standardized uptake value values were calculated. […] Data collected from the ex vivo biodistribution were evaluated using the Kruskal-Wallis analysis. […] Organs were measured for activity and expressed as the percentage injected dose per gram of the organ (%ID/g). […]

Like-named read-outs stand apart in the source and are kept apart here.

T1 sequence (Q969F8 whole entry): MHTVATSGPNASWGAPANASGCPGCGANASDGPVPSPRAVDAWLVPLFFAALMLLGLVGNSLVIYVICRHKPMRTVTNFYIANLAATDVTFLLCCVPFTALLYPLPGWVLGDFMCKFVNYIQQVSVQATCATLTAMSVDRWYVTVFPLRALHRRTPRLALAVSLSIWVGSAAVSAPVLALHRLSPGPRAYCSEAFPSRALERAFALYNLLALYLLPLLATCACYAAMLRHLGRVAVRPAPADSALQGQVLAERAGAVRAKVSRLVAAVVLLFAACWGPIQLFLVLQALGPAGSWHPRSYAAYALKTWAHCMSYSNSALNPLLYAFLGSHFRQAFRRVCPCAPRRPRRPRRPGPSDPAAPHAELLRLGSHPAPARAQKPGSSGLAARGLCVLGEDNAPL

With `CC(C)C[C@H](NC(=O)CNC(=O)[C@H](Cc1ccccc1)NC(=O)[C@H](CO)NC(=O)[C@H](CC(N)=O)NC(=O)[C@H](Cc1c[nH]c2ccccc12)NC(=O)[C@H](CC(N)=O)NC(=O)[C@@H](N)Cc1ccc(O)cc1)C(=O)N[C@@H](CCCNC(=N)N)C(=O)N[C@@H](Cc1ccccc1)C(N)=O` [KP10, kisspeptin‐10], the EC50 on KISS1R (1 h ligand incubation at 37°C, 10 mM LiCl, mean ± SEM, N = 4, read-out: EC50 Mean nM ± SEM (N = 4)) was 1.87 ± 0.095 nM.

In the case of `CC(C)C[C@H](NC(=O)CNC(=O)[C@H](Cc1ccccc1)NC(=O)[C@H](CO)NC(=O)[C@H](CC(N)=O)NC(=O)[C@H](Cc1c[nH]c2ccccc12)NC(=O)[C@H](CC(N)=O)NC(=O)[C@H](Cc1ccc(O)cc1)NC(=O)CN1CCN(CC(=O)O)CCN(CC(=O)O)CCN(CC(=O)O)CC1)C(=O)N[C@@H](CCCNC(=N)N)C(=O)N[C@@H](Cc1ccccc1)C(N)=O` [DOTA‐KP10], at KISS1R (four independent experiments, read-out: EC50), the EC50 worked out at 3.99 nM. The Emax on KISS1R (HEK-293T, KP10 maximal response set at 100%, read-out: Maximal response as % of that of KP10) turned out to be 97.8%.

`CC(C)C[C@H](NC(=O)CNC(=O)[C@H](Cc1ccccc1)NC(=O)[C@H](CO)NC(=O)[C@H](CC(N)=O)NC(=O)[C@H](Cc1c[nH]c2ccccc12)NC(=O)[C@H](CC(N)=O)NC(=O)[C@H](Cc1ccc(O)cc1)NC(=O)CN1CCN(CC(=O)O)CCN(CC(=O)O)CCN(CC(=O)O)CC1)C(=O)N[C@@H](CCCNC(=N)N)C(=O)N[C@@H](Cc1ccccc1)C(N)=O` [[^68Ga]Ga‐DOTA‐KP10, metal not drawn]: in series [1], the “Binding to red blood cells at 10 min” value is given as 6.72 ± 0.37% and the “Binding to red blood cells at 30 min” value is on record as 6.35 ± 2.7%. Further, the tissue uptake at 2.5 h in the series “in vivo” (Ex vivo radioactivity in kidneys) was 1.5 ± 0.2 %ID/g. Further, in “in vivo” (Ex vivo radioactivity in organs other than kidneys), the tissue uptake at 2.5 h is less than 0.5 %ID/g. In addition, in the series “in vivo”, the “Serum:blood ratio” value is “sixfold to eightfold”. For the same compound, in series [2], the “Stability in plasma at 5 min” value is “formation of a degradation product” and the “Stability in whole blood at 5 min” value is “formation of a degradation product”. Further, the log distribution coefficient (logD) in the series “physchem” is -2. Further, in series [3], the “Radioactivity bound to plasma proteins after initiating the incubation (0 min)” value was 28.2 ± 1.35% and the “Radioactivity bound to plasma proteins at 2 h” value was 67.99 ± 3.56%. In addition, in series [4], the “Accumulation in the brain or lungs on micro‐PET/CT” value is recorded as “no noticeable accumulation” and the “Uptake in the hypothalamus on micro‐PET/CT images” value is “No uptake was observed”.

As usually defined, the EC50 is the concentration that produces a half-maximal response. The tissue uptake is the share of the injected amount in each gram of the tissue. Usually logD stands for lipophilicity at a set pH, counting ionised and neutral species. Low readings indicate a more hydrophilic compound, high ones a more lipophilic compound.
